Here are results for 1 molecule from patent publication US20170157251A1 (MacroGenics, published 2017).

The target in one test is T1, human CD3 on T cells (human, UniProt P07766 23-207; P04234 22-171).
T1 construct: also called CD3 on human CD4+ and CD8+ T cells; copies: 1 + 1
As to the kind of experiment: flow cytometry on human blood leukocytes, CD4+ and CD8+ gate (T cells); detection with biotinylated anti-E-coil/K-coil mAb and streptavidin-PE. (In general: Flow cytometry measures light scatter and fluorescence of single cells or particles in a stream.)

The next test deals with T2, human CD19 on cells (human, UniProt P15391 20-556).
T2 construct: whole, on cells; also called CD19 on human CD20+ B cells; CD19 on Raji/GF, HBL-2, Jeko-1 cells
T2 sequence (looked up): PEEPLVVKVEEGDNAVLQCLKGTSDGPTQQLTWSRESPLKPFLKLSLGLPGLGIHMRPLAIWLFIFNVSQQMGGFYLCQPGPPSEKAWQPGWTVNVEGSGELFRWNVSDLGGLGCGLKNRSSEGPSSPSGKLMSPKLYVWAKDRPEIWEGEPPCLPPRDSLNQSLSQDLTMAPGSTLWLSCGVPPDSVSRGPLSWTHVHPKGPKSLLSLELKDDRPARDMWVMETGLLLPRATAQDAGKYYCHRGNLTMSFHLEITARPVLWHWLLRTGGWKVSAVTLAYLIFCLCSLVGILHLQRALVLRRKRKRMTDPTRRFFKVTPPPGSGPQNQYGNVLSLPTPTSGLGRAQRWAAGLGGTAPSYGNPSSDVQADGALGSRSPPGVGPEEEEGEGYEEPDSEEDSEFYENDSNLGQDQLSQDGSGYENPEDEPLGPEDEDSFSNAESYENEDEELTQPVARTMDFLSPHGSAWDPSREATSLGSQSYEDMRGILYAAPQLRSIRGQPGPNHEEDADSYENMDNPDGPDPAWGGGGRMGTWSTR
As to the kind of experiment: flow cytometry on human blood leukocytes, CD20+ gate (B cells); detection with biotinylated anti-E-coil/K-coil mAb and streptavidin-PE.

The target in test [1] is T3, soluble human CD19-biotin (human, UniProt P15391 20-291, limits assumed, biotin (site not stated)).
T3 construct: Detection antigen of the bifunctional ELISA
T3 sequence (looked up): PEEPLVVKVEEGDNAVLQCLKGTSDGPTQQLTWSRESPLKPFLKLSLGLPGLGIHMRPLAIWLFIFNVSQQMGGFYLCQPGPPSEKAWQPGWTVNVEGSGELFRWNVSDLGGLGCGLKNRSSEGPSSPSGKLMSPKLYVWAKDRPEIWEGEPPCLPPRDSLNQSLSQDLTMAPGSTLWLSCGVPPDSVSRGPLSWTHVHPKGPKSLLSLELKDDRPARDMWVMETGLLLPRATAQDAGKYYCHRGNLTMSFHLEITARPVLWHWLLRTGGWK
Nature of the test: bifunctional (bispecific) ELISA: plate coated with soluble human CD3ε/δ, DART titrated, detected with soluble human CD19-biotin. (In general: An ELISA detects its analyte on a solid surface through an enzyme-linked reagent.)

The target of test [2] is T4, cynomolgus monkey CD3 on T cells (cynomolgus monkey, UniProt Q95LI5 22-198; Q95LI8 22-171).
T4 construct: T cells were gated as CD4+ and CD8+; also called CD3 on cynomolgus monkey CD4+ and CD8+ T cells
Nature of the test: flow cytometry on cynomolgus monkey blood leukocytes, CD4+ and CD8+ gate (T cells); detection with biotinylated anti-E-coil/K-coil mAb and streptavidin-PE.

T4 sequence (Q95LI5 22-198 limits assumed, chain 1 of 2): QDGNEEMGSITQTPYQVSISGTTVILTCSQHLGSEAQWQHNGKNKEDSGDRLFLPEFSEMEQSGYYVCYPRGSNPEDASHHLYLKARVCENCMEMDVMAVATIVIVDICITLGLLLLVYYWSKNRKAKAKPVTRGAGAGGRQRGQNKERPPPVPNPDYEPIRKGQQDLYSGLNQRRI
T4 sequence (Q95LI8 22-171 limits assumed, chain 2 of 2): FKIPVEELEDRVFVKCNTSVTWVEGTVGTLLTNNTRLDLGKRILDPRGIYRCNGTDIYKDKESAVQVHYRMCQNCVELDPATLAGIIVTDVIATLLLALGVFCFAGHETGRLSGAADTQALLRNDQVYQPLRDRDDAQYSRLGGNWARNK
T1 sequence (P07766 23-207 limits assumed, chain 1 of 2): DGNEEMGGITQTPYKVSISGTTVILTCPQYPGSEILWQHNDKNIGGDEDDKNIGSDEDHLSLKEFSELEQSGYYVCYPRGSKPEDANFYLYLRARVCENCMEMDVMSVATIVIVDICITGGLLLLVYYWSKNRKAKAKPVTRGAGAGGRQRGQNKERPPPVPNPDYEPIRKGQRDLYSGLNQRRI
T1 sequence (P04234 22-171 limits assumed, chain 2 of 2): as the sequence (Q95LI8 22-171 limits assumed, chain 2 of 2) above, with V5I, K15N, V20I, T32S, N33D, N34I, A64T, N74S, L83V, R141H counted along it

B1: Control DART 1 (Fluorescein×CD3) (bispecific antibody)
chain 1: DVVMTQTPFSLPVSLGDQASISCRSSQSLVHSNGNTYLRWYLQKPGQSPKVLIYKVSNRFSGVPDRFSGSGSGTDFTLKISRVEAEDLGVYFCSQSTHVPWTFGGGTKLEIKGGGSGGGGEVQLVESGGGLVQPGGSLRLSCAASGFTFSTYAMNWVRQAPGKGLEWVGRIRSKYNNYATYYADSVKGRFTISRDDSKNSLYLQMNSLKTEDTAVYYCVRHGNFGNSYVSWFAYWGQGTLVTVSSASTKGEVAACEKEVAALEKEVAALEKEVAALEKGGGDKTHTCPPCPAPEAAGGPSVFLFPPKPKDTLMISRTPEVTCVVVDVSHEDPEVKFNWYVDGVEVHNAKTKPREEQYNSTYRVVSVLTVLHQDWLNGKEYKCKVSNKALPAPIEKTISKAKGQPREPQVYTLPPSREEMTKNQVSLWCLVKGFYPSDIAVEWESNGQPENNYKTTPPVLDSDGSFFLYSKLTVDKSRWQQGNVFSCSVMHEALHNHYTQKSLSLSPGK
chain 2: QAVVTQEPSLTVSPGGTVTLTCRSSTGAVTTSNYANWVQQKPGQAPRGLIGGTNKRAPWTPARFSGSLLGGKAALTITGAQAEDEADYYCALWYSNLWVFGGGTKLTVLGGGGSGGGGEVKLDETGGGLVQPGRPMKLSCVASGFTFSDYWMNWVRQSPEKGLEWVAQIRNKPYNYETYYSDSVKGRFTISRDDSKSSVYLQMNNLRVEDMGIYYCTGSYYGMDYWGQGTSVTVSSASTKGKVAACKEKVAALKEKVAALKEKVAALKE
chain 3: not shown
notes: other arm is anti-fluorescein 4-4-20
As to B1, the binding result with human CD3 on T cells is given as “binds”; in the test with human CD19 on cells, “no binding (tested: about 80 nM)”; in test [1], “no binding (tested: about 5 µg/ml)”; in test [2] it was “binds”.
